Reference: patent US20200247855A1, “THERAPY AND DIAGNOSTICS” (OXFORD UNIVERSITY INNOVATION LIMITED, priority 2017, published 2020)
Entries after “also recorded” stand apart in the source; their conditions may differ.

Legend:
[1] = molecular target: CCL11_HUMAN (Homo sapiens, UniProt P51671); test: Biolayer interferometry (BLI) binding
Protocol: (§1) Table 1. Tick CKBPs described in PCT/GB2017/050563 and [17]. Tick peptide sequences isolated in yeast surface display fluorescent-activated cell sorting (FACS) screens using a labelled chemokine. Identity with Evasin-1, 4 or 3 was calculated using BLAST. Abbreviations: IXORI—Ixodes ricinus, RHISA—Rhipicephalus sanguineus, AMBMA—Amblyomma maculatum, AMBPA—Amblyomma parvum, AMBTR—Amblyomma triste, AMBAM—Amblyomma americanum, AMBCA—Amblyomma cajennense, RHIPU—Rhipicephalus pulchellus. Table 2A-C. Binding characteristics of tick CKBPs previously disclosed (PCT/GB2017/050563 and [17]). All members of the human chemokine family[164] are listed in column 1. Binding to human chemokines was determined for 14 tick CKBPs using biolayer interferometry (BLI) with calculated Kd shown as Molar (Moles/Litre). Binding data for 17 other novel tick CKBPs was assayed using yeast surface display[17,166],with positive binding results shown as “YES”. For biolayer interferometry, His-tagged purified tick CKBP was bound to a Ni-NINTA sensor on an OctetRed® 384 system, and then binding to each chemokine listed (with the exception of CCL25, CCL26, CXCL16, CXCL17, CXCL4L1, XCL2) was assayed in a cross-binding screen at a chemokine concentration of 300 nM as described. For those chemokines showing binding to a tick CKBP in the cross-binding screen, binding assays were repeated using different doses of chemokine. Association, equilibrium and dissociation data were analysed using Octet software to create corresponding fitted curves, and used to calculate Kd. For yeast surface display, (YSD) background fluorescence was controlled for by using either an empty vector or by omitting the chemokine (i.e. using streptavidin-Alexa647 alone). An arbitrary threshold of >3 fold over background mean fluorescence intensity was chosen to describe confirmed re-tests. Where binding was detected data are indicated as “YES”. […] For yeast surface display data, empty cells represent chemokines that were not tested. Binding data published in relation to previously described tick CKBPs (Evasins-1, 4 and 3) is also shown for comparison in each of FIGS. 2A-C, with the relevant data obtained from publications: [20-22,32]. Table 3: Neutralisation of human chemokines by tick CKBPs previously disclosed (PCT/GB2017/050563 and [17]). Neutralising activity was determined using a quantitative THP1 cell migration assay in a 96-well Boyden chamber with chemokine in the bottom chamber as described. Cells migrating through to the bottom chamber at 4 hours were counted using flow cytometry in a 96 well plate format. IC50 for neutralisation was determined at the chemokine EC80 dose as determined using a range of tick CKBP concentrations. Data was analysed using GraphPad Prism to determine IC50, which is shown as Molar (Moles/Litre). Empty cells represent experiments not done. Table 4—Other previously described tick CKBPs. Tick CKBPs that were also described in PCT/GB2017/050563 and Singh et al. are indicated in “Notes”. Table 5.—Novel tick CKBPs of the invention. Table 6. […] The peptide sequence prefix indicates the identity, and suffix indicate the tick species as follows: AMBCA, Amblyomma cajennense and IXORI, Ixodes ricinus. […] Certain tick peptides e.g. P1074_IXORI were recovered from screens performed with more than one chemokine. Individual yeast clones recovered from the library were re-tested using a FACS (fluorescence activated cell sorting), experiment. The binding of the peptide to the chemokine was assayed by measuring the percent (%), of yeast cells expressing the given peptide that exceeded a background threshold set by measuring the fluorescence of the yeast library pool treated with streptavidin-[…] alone. When more than one independent yeast clone was isolated for a given peptide-chemokine combination, the mean percent shift was calculated and reported in column 3. […]

[2] = molecular target: CCL13_HUMAN (Homo sapiens, UniProt Q99616); test: Biolayer interferometry (BLI) binding
Protocol: as §1

[3] = molecular target: T1, CCL14_HUMAN (Homo sapiens, UniProt Q16627); test: Biolayer interferometry (BLI) binding
T1 sequence (Q16627 20-93): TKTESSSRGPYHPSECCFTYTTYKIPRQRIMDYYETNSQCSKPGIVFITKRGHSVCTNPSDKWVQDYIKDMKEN
Protocol: as §1

[4] = molecular target: T2, CCL16_HUMAN (Homo sapiens, UniProt O15467); test: Biolayer interferometry (BLI) binding
T2 sequence (O15467 24-120): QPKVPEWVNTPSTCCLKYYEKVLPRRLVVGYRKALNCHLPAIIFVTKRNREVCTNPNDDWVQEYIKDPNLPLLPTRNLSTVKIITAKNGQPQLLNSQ
Protocol: as §1

[5] = molecular target: T3, CCL18_HUMAN (Homo sapiens, UniProt P55774); test: Biolayer interferometry (BLI) binding
T3 sequence (P55774 21-89): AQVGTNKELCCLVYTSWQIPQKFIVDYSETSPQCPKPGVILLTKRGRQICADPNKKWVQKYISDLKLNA
Protocol: as §1

[6] = molecular target: T4, CCL1_HUMAN (Homo sapiens, UniProt P22362); test: Biolayer interferometry (BLI) binding
T4 sequence (P22362 24-96): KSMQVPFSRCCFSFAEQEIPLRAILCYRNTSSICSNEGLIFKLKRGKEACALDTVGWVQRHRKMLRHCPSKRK
Protocol: as §1

[7] = molecular target: CCL2_HUMAN (Homo sapiens, UniProt P13500); test: Biolayer interferometry (BLI) binding
Protocol: as §1

[8] = molecular target: CCL3L1_HUMAN (Homo sapiens, UniProt P16619); test: Biolayer interferometry (BLI) binding
Protocol: as §1

[9] = molecular target: T5, CCL3_HUMAN (Homo sapiens, UniProt P10147); test: Biolayer interferometry (BLI) binding
T5 sequence (P10147 24-92): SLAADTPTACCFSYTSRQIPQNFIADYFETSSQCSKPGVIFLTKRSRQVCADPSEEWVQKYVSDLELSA
Protocol: as §1

[10] = molecular target: T6, CCL4L1_HUMAN (Homo sapiens, UniProt Q8NHW4); test: Biolayer interferometry (BLI) binding
T6 sequence (Q8NHW4 24-92): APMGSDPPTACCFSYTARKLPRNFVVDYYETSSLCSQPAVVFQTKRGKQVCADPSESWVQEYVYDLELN
Protocol: as §1

[11] = molecular target: T7, CCL4_HUMAN (Homo sapiens, UniProt P13236); test: Biolayer interferometry (BLI) binding
T7 sequence (P13236 24-92): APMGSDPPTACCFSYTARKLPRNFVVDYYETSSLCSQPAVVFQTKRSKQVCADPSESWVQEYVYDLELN
Protocol: as §1

[12] = molecular target: CCL7_HUMAN (Homo sapiens, UniProt P80098); test: Biolayer interferometry (BLI) binding
Protocol: as §1

[13] = molecular target: T8, CCL8_HUMAN (Homo sapiens, UniProt P80075); test: Biolayer interferometry (BLI) binding; details: read-out: Kd, CCL8_HUMAN
T8 sequence (P80075 24-99): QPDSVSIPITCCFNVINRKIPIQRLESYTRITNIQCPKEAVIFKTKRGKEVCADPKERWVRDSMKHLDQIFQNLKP
Protocol: as §1

[14] = test system: chemokines; details: list of chemokines bound, from the literature [18,20-22]; cited from earlier work
[15] = molecular target: T9, CXCL11_HUMAN (Homo sapiens, UniProt O14625); test: Yeast surface display (YSD) FACS binding; details: FACS re-test; mean percent shift where several clones
T9 sequence (O14625 22-94): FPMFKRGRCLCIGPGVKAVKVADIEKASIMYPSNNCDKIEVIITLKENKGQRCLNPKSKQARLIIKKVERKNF
Protocol: as §1

[16] = molecular target: CCL20_HUMAN (Homo sapiens, UniProt P78556); test: Yeast surface display (YSD) FACS binding
Protocol: as §1

[17] = molecular target: CXCL12_HUMAN (Homo sapiens, UniProt P48061); test: Yeast surface display (YSD) FACS binding; details: yeast surface display
Protocol: as §1

[18] = molecular target: T10, CCL17_HUMAN (Homo sapiens, UniProt Q92583); test: Yeast surface display (YSD) FACS binding
T10 sequence (Q92583 24-94): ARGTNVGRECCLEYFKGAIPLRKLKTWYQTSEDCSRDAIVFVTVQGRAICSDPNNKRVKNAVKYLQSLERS
Protocol: as §1

[19] = molecular target: T11, CCL5_HUMAN (Homo sapiens, UniProt P13501); test: Yeast surface display (YSD) FACS binding
T11 sequence (P13501 24-91): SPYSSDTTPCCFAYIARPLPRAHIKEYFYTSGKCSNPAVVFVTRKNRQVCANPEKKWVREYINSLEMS
Protocol: as §1

[20] = molecular target: T12, CXCL8_HUMAN (Homo sapiens, UniProt P10145); test: Yeast surface display (YSD) FACS binding; design: label (chemical); details: yeast surface display
T12 sequence (P10145 21-99): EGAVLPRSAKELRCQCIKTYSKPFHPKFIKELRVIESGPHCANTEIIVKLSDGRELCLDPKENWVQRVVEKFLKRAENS
Protocol: as §1

CCL20_HUMAN, sequence (P78556 27-96): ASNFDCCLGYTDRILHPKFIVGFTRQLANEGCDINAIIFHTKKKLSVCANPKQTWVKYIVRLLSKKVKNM
CCL7_HUMAN, sequence (P80098 24-99): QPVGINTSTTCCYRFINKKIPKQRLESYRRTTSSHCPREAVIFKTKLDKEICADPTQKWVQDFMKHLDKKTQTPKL
CCL2_HUMAN, sequence (P13500 24-99): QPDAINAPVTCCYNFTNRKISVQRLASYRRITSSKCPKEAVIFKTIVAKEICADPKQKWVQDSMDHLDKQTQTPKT
CCL3L1_HUMAN, sequence (P16619 24-93): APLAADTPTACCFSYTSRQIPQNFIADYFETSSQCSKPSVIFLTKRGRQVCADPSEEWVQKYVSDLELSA
CCL13_HUMAN, sequence (Q99616 17-98): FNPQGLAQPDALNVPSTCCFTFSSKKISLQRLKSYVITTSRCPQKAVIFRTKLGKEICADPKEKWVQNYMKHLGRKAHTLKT
CXCL12_HUMAN, sequence (P48061 22-93): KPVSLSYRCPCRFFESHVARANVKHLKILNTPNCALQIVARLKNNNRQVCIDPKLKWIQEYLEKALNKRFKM
CCL11_HUMAN, sequence (P51671 24-97): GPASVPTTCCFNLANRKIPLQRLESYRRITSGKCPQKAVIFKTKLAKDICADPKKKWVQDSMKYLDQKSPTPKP

B1: P467_RHIPU: tick CKBP (evasin), Rhipicephalus pulchellus; RPU-01 stated identical (protein, listed as Rhipicephalus pulchellus)
chain: AEKSLDSDSSGEDYELWTQGCPFLVAENRTGFGTTVSCQHNCNGAIEKVPEGEPCYTIGEDGLGRMKLNLPYNCSLGECSGGVCVPNGRSDVCFKRTWEENNKAMA
Kd [1]: 1.4 nM
Kd [2]: 2.56 nM
Kd [3]: 4.13 nM
Kd [4]: 14.1 nM
Kd [5]: 16.6 nM
Kd [6]: 53.4 nM
Kd [7]: 0.001 nM
Kd [8]: 0.524 nM
Kd [9]: 0.363 nM
Kd [10]: 4.72 nM
Kd [11]: 13.6 nM
Kd [12]: 2.15 nM
Kd [13]: 2.85 nM
Previously described chemokine binding [14]: CCL11, CCL24,; also recorded: CCL26, CCL2,; also recorded: CCL8, CCL7

B2: P1078_IXORI: novel CXC-binding tick CKBP, Ixodes ricinus (protein, listed as Ixodes ricinus)
chain: GSKGSSAQQSSHDSIKAEFCETNCTMKTGGKWTQCHGGCFCVHVGNETVGRCIKLDGDYDYPSSKHEE
Chemokines bound in yeast surface display and % cells over threshold fluorescence: CXCL11_HUMAN [15]: CXCL11_HUMAN 38%

B3: P1015_AMBCA: tick CKBP, Amblyomma cajennense (protein)
chain: EEAPGPAPGCGEPEPTPPKPRRHGIVTNVNSCNSTILVWNGKEFPALCKVRCPHKSYRVSDFEPCLKFTNRRFLQERKDETPYKCKLGFCRHGTCITSEHSRKVPCKVPADRLDPSE
modifications: Amblyomma cajennense
Binding to CCL20_HUMAN, YSD [16]: YES (An arbitrary threshold of >3 fold over background mean fluorescence intensity was chosen to describe confirmed re-tests. Where binding was detected data are indicated as “YES”)
Binding to CXCL12_HUMAN, YSD [17]: YES (An arbitrary threshold of >3 fold over background mean fluorescence intensity was chosen to describe confirmed re-tests. Where binding was detected data are indicated as “YES”)

B4: P1252_AMBAM: tick CKBP, Amblyomma americanum (protein, listed as Amblyomma americanum)
chain: RGGAASVPANASIPGCGDAQTTPAAPEDQPKHYVVYRDGNGCEVKIIGTWMTTEDYNCLPDTFRKNRAPHGKVKLPASCKKTCGNAVQNLKDGTPCRKVFGDLGRRRNLIKNGCLVGACQSGLCVSGNRTISCYIPPNSTDTRATPGSFAE
Binding to CCL17_HUMAN, YSD [18]: YES (An arbitrary threshold of >3 fold over background mean fluorescence intensity was chosen to describe confirmed re-tests. Where binding was detected data are indicated as “YES”)
Binding to CCL20_HUMAN, YSD [16]: YES (An arbitrary threshold of >3 fold over background mean fluorescence intensity was chosen to describe confirmed re-tests. Where binding was detected data are indicated as “YES”)

B5: P993_AMBPA: tick CKBP, Amblyomma parvum (protein, listed as Amblyomma parvum)
chain: HRHYDPNEPCLIAGLKTPRDALPAGCRYDCMIKKNQKLRDGLLCLDVPEKVVKRMVNYLNYSCPLGTCRKGICKRKHRNVRCQKYPVFYMSPPK
Binding to CCL17_HUMAN, YSD [18]: YES (An arbitrary threshold of >3 fold over background mean fluorescence intensity was chosen to describe confirmed re-tests. Where binding was detected data are indicated as “YES”)
Binding to CCL20_HUMAN, YSD [16]: YES (An arbitrary threshold of >3 fold over background mean fluorescence intensity was chosen to describe confirmed re-tests. Where binding was detected data are indicated as “YES”)
Binding to CCL5_HUMAN, YSD [19]: YES (An arbitrary threshold of >3 fold over background mean fluorescence intensity was chosen to describe confirmed re-tests. Where binding was detected data are indicated as “YES”)
Binding to CXCL8_HUMAN, YSD [20]: YES (An arbitrary threshold of >3 fold over background mean fluorescence intensity was chosen to describe confirmed re-tests. Where binding was detected data are indicated as “YES”)

B6: P675_IXORI: novel CXC-binding tick CKBP, Ixodes ricinus (protein, listed as Ixodes ricinus)
chain: GSNQLSGPQSSANSNDAVFCDTNCTQGTDGAWSGCRGDCFCVHVGNSTEGRCIELIGDFDYSTPGAED
Chemokines bound in yeast surface display and % cells over threshold fluorescence: CXCL11_HUMAN [15]: CXCL11_HUMAN 55%

B7: P1090_IXORI: novel CXC-binding tick CKBP, Ixodes ricinus (protein, listed as Ixodes ricinus)
chain: GSKELSGPESSENSIEAAFCDTNCTEGTDGVWSGCSAGCFCVHVGNSTVGRCMTFNGVDGG
Chemokines bound in yeast surface display and % cells over threshold fluorescence: CXCL11_HUMAN [15]: CXCL11_HUMAN 32%
